# Test results taken from US20240164355.
# B1: CidB(762-1143) (protein)
# chain: SSRPGGLVGPESVIDENPPEGLLSDQTRENFRRFYEEKAPGQNSIFLLDIGDNLHVPFSYLQGTRAQVIETLKSRIRGGGTPTAQGILQQINAILRRNNAREIEDVHDLLALDFATDNQNYRYWLQTHDMFFAARQYTFLDNQSHSTNDHYGFEITSVGVDGNQNDPTGRGLLSSHITNFKQKVDSGEKDRLIAIINVGNRHWVTLVIVHQNGNYYGYYADSLGPDSGIDNNIRGALRECDINDDNVHNISVHQQTDGHNCGIWVYENARDINQAIDQALQGNNNFGEKGEGIIGYIRGLLSAGIGNDTRQPRRNEQYFEDRRRDISQLLQNDPNLPSRRSDLIQAHPGIQHEIDPLLLQFLGLQYPQRGGGGALQLGGERV
# B2: CidB (CidB^wPip), full length (protein)
# chain: MSNGDGLIRSLVDGDLEGFRQGFESFLDQCPSFLYHVSAGRFLPVFFFSMFSTAHDANILNANERVYFRFDNHGVNPRNGENRNTANLKVAVYRDGQQVVRCYSISDRPNSDGLRFSTRERNALVQEIRRQNPNLREEDLNFEQYKVCMHGKGKSQGEAIATVFEVIREKDRQGRDKFAKYSASEVHFLRQLFRNHRLTIKEIEGRQLNQNQLRQLGRSVNFTRVEPGQQRIDNFMEMLASNQRQDVRDSLRGDILEYVTDTYNNYRAQIENNIEGRSQKFESHGFLLGFLANFSHRYTIGVDLDLSPRNSHVAFLVRHQVERENIPIVINLATRAPPYIALNRARSHAERLHVFSFIPIHTESRNTVCVGLNFNLNLDPFSVDTVGLQQDRFPLVQRLFECLENEGIRENIRDFLLHHLPAEIPRNAENYDRIFDCITGFAFGNSAFDRHPLELEEEDEAPITKYIFRHGDEGLRCLTMVFHAEGSDIVILHIRAHDAQQQGAINLQTLNVNGNDVHVWEVSCTLNNQLELDIDLPNDLGLYHDYQNNNANNFLAGDLVQVPNTENVHNTLNQVVNDGWKNIAQHRGLFQEISGALMPLVDTINVNSEDKFRSILHGTFYASDNPYKVLAMYKVGQTYSLKRGQEEEGERVILTRITEQRLDLLLLRQPRENDLDTHPIGYVLRLANNAEEVGQQQNDARQEIGRLKKQHRGFIPITSGNEVVLFPIVFNRDAHEAGNLILFPEGIGREEHVHRLDRHVRSSRPGGLVGPESVIDENPPEGLLSDQTRENFRRFYEEKAPGQNSIFLLDIGDNLHVPFSYLQGTRAQVIETLKSRIRGGGTPTAQGILQQINAILRRNNAREIEDVHDLLALDFATDNQNYRYWLQTHDMFFAARQYTFLDNQSHSTNDHYGFEITSVGVDGNQNDPTGRGLLSSHITNFKQKVDSGEKDRLIAIINVGNRHWVTLVIVHQNGNYYGYYADSLGPDSGIDNNIRGALRECDINDDNVHNISVHQQTDGHNCGIWVYENARDINQAIDQALQGNNNFGEKGEGIIGYIRGLLSAGIGNDTRQPRRNEQYFEDRRRDISQLLQNDPNLPSRRSDLIQAHPGIQHEIDPLLLQFLGLQYPQRGGGGALQLGGERVISIDFGNPQSALDKIDGVSRVYNHSNSRGSR
# B3: CidB^wMel (797-1128) (protein)
# chain: QNSIFLLDIDDNLHVPFSYLQGTRAQAIETLRSRIRGGGTSTAQGILQQINTILRRNNAREIEDVHNLLALDFATENQNFRYWLQTHDMFFAARQYTFHDDRSNPTNDRHDFAITSVGVDGNQNDPTGRDLLSSNIDNFKQKVDSGEKDRLTAIINVGNRHWVTLVIVHQNGNYYGYYADSLGPDSRIDNNIRGALRECDISDDNVHDVSVHQQTDGHNCGIWAYENARDINQAIDQALQGNSNFGEKGEGIIGYIRGLLSAGIGNDTRQPQRNEQYFRNRRRNISQLFQNDSLSSPRGRLIQGRPGIQHEIDPLLLQFLELQYPQRGGGGA
# Assays:
# [1] = target: Ubiquitin-AMC (Ub-AMC), P0CG48
# [2] = target: all forms of lysine-linked (isopeptide-linked) diubiquitin
# Ubiquitin-AMC (Ub-AMC), P0CG48, sequence (P0CG48 whole entry, looked up): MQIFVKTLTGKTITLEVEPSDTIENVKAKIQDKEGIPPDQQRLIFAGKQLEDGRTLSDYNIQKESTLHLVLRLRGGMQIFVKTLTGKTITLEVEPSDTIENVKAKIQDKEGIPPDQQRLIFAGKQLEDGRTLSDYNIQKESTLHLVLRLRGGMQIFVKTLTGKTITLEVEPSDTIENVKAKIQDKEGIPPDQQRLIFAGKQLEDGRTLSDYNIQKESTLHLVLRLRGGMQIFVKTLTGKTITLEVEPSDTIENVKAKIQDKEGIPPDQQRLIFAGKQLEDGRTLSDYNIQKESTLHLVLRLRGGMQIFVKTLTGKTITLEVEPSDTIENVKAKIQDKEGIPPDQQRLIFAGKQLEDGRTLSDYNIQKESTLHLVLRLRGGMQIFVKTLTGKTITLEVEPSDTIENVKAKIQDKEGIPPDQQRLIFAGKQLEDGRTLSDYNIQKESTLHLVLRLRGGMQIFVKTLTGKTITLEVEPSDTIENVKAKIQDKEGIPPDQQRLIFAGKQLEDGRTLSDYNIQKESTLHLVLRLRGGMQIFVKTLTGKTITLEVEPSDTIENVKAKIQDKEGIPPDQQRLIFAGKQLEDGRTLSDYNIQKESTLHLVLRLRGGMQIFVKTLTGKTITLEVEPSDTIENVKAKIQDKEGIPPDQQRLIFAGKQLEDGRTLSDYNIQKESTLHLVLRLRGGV
# Nedd8-AMC, Q15843, sequence (Q15843 whole entry, looked up): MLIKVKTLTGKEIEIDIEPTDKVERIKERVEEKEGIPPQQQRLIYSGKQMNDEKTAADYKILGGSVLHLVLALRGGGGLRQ
# ISG15-AMC, P05161, sequence (P05161 2-157): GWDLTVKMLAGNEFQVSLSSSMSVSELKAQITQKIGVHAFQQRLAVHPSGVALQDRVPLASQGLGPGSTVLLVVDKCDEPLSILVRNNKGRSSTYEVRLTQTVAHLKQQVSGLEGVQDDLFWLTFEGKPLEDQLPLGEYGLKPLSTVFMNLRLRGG
# SUMO2-AMC, P61956, sequence (P61956 1-93): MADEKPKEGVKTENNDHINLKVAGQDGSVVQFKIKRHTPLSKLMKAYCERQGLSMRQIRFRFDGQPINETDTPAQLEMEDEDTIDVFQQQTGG
# SUMO1-AMC, P63165, sequence (P63165 2-97): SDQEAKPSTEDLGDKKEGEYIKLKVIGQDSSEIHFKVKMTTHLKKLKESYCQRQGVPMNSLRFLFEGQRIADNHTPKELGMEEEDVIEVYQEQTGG
protein,measurement,setting,value
B1,UBL-AMC hydrolysis (AMC release),"SUMO1-AMC, P63165","Despite testing human ISG15-AMC and SUMO1/2-AMC with several concentrations of CidB (up to 400 nM), we failed to detect any AMC release"
same,kcat/KM for Nedd8-AMC,"Nedd8-AMC, Q15843",its kcat/KM for Nedd8-AMC was determined to be 0.69 µM^-1 min^-1
same,UBL-AMC hydrolysis (AMC release),"ISG15-AMC, P05161","Despite testing human ISG15-AMC and SUMO1/2-AMC with several concentrations of CidB (up to 400 nM), we failed to detect any AMC release"
same,UBL-AMC hydrolysis (AMC release),"SUMO2-AMC, P61956","Despite testing human ISG15-AMC and SUMO1/2-AMC with several concentrations of CidB (up to 400 nM), we failed to detect any AMC release"
same,catalytic efficiency for Ub-AMC relative to Nedd8-AMC,[1],CidB^wPip catalytic efficiency for hydrolyzing Ub-AMC is 11-fold greater than for Nedd8-AMC
same,kcat/KM for Ub-AMC hydrolysis,[1],the kcat/KM for Ub-AMC hydrolysis was 7.59 µM^-1 min^-1
B2,diubiquitin cleavage (panel digest),[2],"Full length CidB cleaves all forms of lysine-linked (isopeptide-linked) diubiquitin, albeit with variable efficiency"
B3,Nedd8-AMC hydrolysis (AMC release),"Nedd8-AMC, Q15843","both CidB and CidB^wMel cleaved Ub-AMC, and to a much lesser extent, the UBL Nedd8-AMC"
same,Ub-AMC hydrolysis (AMC release),[1],"both CidB and CidB^wMel cleaved Ub-AMC, and to a much lesser extent, the UBL Nedd8-AMC"
